# B1: HDV Ribozyme (parent)
# chain: GGCCGGCAUGGUCCCAGCCUCCUCGCUGGCGCCGGCUGGGCAACAUUCCGAGGGGACCGUCCCCUCGGUAAUGGCGAAUGGGACCCA
# Variants of: B1
# Assay: self-cleavage, relative activity (ratio to wild type); higher = more cleavage; co-transcriptional
row,Variant,self-cleavage
1,GGCCGGCAUGGUCCCAGCCUCCUCGCUGGCGCCGGCUGGGCAACAAUACGAGGGGACCGUCCCCUCGGUAAUGGCGAAUGGGACCCA,0.665
2,GGCCGGCAUGGUCCCAGCCUCCUCGCUGGCGCCGGCUGGGCAACGUUCCGAGGGGACCGUCCCCGCGGUAAUGGCGAAUGGGACCCA,0.782
3,GGCCGGCAUGGUCCCAGCCUCCUCGCUGGCGCCGGCUGGGCAACGUUCCGAGGGGACCGUCCCCACGGUAAUGGCGAAUGGGACCCA,0.767
4,GGCCGGCAUGGUCCCAGCCUCCUCGCUGGCGCCGGCUGGGCAACUUUCCGAGGGGACCGUCCCCUCGGUAACGGCGAAUGGGACCCA,1.02
5,GGCCGGCAUGGUCCCAGCCUCCUCGCUGGCGCCGGCUGGGCAACUUUCCGAGGGGACCGUCCCCGCGGUAAUGGCGAAUGGGACCCA,0.615
6,GGCCGGCAUGGUCCCAGCCUCCUCGCUGGCGCCGGCUGGGCAACGUUACGAGGGGACCGUCCCCUCGGUAAUGGCGAAUGGGACCCA,1.27
7,GGCCGGCAUGGUCCCAGCCUCCUCGCUGGCGCCGGCUGGGCAACGUUCCGAGGGGACCGUCCCCUCGGUAAUGGCGAAUGUGACCCA,0.208
8,GGCCGGCAUGGUCCCAGCCUCCUCGCUGGCGCCGGCUGGGCAACGUUCCGAGGGGACCGUCCCCUCGGUAAUGGCGAAUGCGACCCA,0.147
9,GGCCGGCAUGGUCCCAGCCUCCUCGCUGGCGCCGGCUGGGCAACUUUCCGAGGGGACCGUCCCCUCGGUAAUGGCAAAUGGGACCCA,0.578
10,GGCCGGCAUGGUCCCAGCCUCCUCGCUGGCGCCGGCUGGGCAACUUUCCGAGGGGACCGUCCCCUCGGUAAUGGCCAAUGGGACCCA,0.689
11,GGCCGGCAUGGUCCCAGCCUCCUCGCUGGCGCCGGCUGGGCAACGUUCCGAGGAGACCGUCCCCUCGGUAAUGGCGAAUGGGACCCA,0.814
12,GGCCGGCAUGGUCCCAGCCUCCUCGCUGGCGCCGGCUGGGCAACAAUCCGAGGGGACCGUCCCCUCGGUAGUGGCGAAUGGGACCCA,0.895
13,GGCCGGCAUGGUCCCAGCCUCCUCGCUGGCGCCGGCUGGGCAACUUUCCGAGGGGACCGUCCCCUCGGUAAUGGCGACUGGGACCCA,0.13
14,GGCCGGCAUGGUCCCAGCCUCCUCGCUGGCGCCGGCUGGGCAACGUUCCGAGGGGACCGUCCCCUCUGUAAUGGCGAAUGGGACCCA,0.933
15,GGCCGGCAUGGUCCCAGCCUCCUCGCUGGCGCCGGCUGGGCAACGUUCCGAGGGGACCGUCCCCUCAGUAAUGGCGAAUGGGACCCA,0.678
16,GGCCGGCAUGGUCCCAGCCUCCUCGCUGGCGCCGGCUGGGCAACGUUCCGAGGGGACCGUCCCCUCGGUAAUGGCGAAUGGGACACA,1.01
17,GGCCGGCAUGGUCCCAGCCUCCUCGCUGGCGCCGGCUGGGCAACGUUCCGAGGGGACCGUCCCCUCGGUAAUGGCGAAUGGGACGCA,0.88
18,GGCCGGCAUGGUCCCAGCCUCCUCGCUGGCGCCGGCUGGGCAACGUUCCGAGGGGACCGUCCCCUCGAUAAUGGCGAAUGGGACCCA,0.867
19,GGCCGGCAUGGUCCCAGCCUCCUCGCUGGCGCCGGCUGGGCAACGUUCCGAGGGGACCGUCCCCUCGUUAAUGGCGAAUGGGACCCA,0.804
20,GGCCGGCAUGGUCCCAGCCUCCUCGCUGGCGCCGGCUGGGCAACGUUCCGAGGGGACCGUCCACUCGGUAAUGGCGAAUGGGACCCA,0.872
21,GGCCGGCAUGGUCCCAGCCUCCUCGCUGGCGCCGGCUGGGCAACUUUCCGAGGGGACCGUCCCCUCGGUGAUGGCGAAUGGGACCCA,0.808
22,GGCCGGCAUGGUCCCAGCCUCCUCGCUGGCGCCGGCUGGGCAACGUUCCGAGGGGACCGUCCCCUCGGUAAUAGCGAAUGGGACCCA,0.966

row,Variant,self-cleavage
1,GGCCGGCAUGGUCCCAGCCUCCUCGCUGGCGCCGGCUGGGCAACGUUCCGAGGGGACCGUCUCCUCGGUAAUGGCGAAUGGGACCCA,1.03
2,GGCCGGCAUGGUCCCAGCCUCCUCGCUGGCGCCGGCUGGGCAACUUUCCGAGGGGACCGUCCCCUCGGUAAUGGCGAAUGCGACCCA,0.287
3,GGCCGGCAUGGUCCCAGCCUCCUCGCUGGCGCCGGCUGGGCAACUUUCCGAGGGGACCGUCCCCUCGGUAAUGGCGAAUGUGACCCA,0.277
4,GGCCGGCAUGGUCCCAGCCUCCUCGCUGGCGCCGGCUGGGCAACGUUCCGAUGGGACCGUCCCCUCGGUAAUGGCGAAUGGGACCCA,0.731
5,GGCCGGCAUGGUCCCAGCCUCCUCGCUGGCGCCGGCUGGGCAACUUUCCGAGGGGACCGUCGCCUCGGUAAUGGCGAAUGGGACCCA,0.798
6,GGCCGGCAUGGUCCCAGCCUCCUCGCUGGCGCCGGCUGGGCAACGUUCCUAGGGGACCGUCCCCUCGGUAAUGGCGAAUGGGACCCA,1.16
7,GGCCGGCAUGGUCCCAGCCUCCUCGCUGGCGCCGGCUGGGCAACGUUCCCAGGGGACCGUCCCCUCGGUAAUGGCGAAUGGGACCCA,0.989
8,GGCCGGCAUGGUCCCAGCCUCCUCGCUGGCGCCGGCUGGGCAACGUUCCGAGGGGACCGACCCCUCGGUAAUGGCGAAUGGGACCCA,0.866
9,GGCCGGCAUGGUCCCAGCCUCCUCGCUGGCGCCGGCUGGGCAACGCUCCGAGGGGACCGUCCCCUCGGUAAUGGCGAAUGGGACCCA,0.511
10,GGCCGGCAUGGUCCCAGCCUCCUCGCUGGCGCCGGCUGGGCAACGAUCCGAGGGGACCGUCCCCUCGGUAAUGGCGAAUGGGACCCA,0.806
11,GGCCGGCAUGGUCCCAGCCUCCUCGCUGGCGCCGGCUGGGCAACUUUCCGAGGGGACCGUCCCCUCGGUAAUGGCGAAUCGGACCCA,0
12,GGCCGGCAUGGUCCCAGCCUCCUCGCUGGCGCCGGCUGGGCAACUUUCCGAGGGGACCGUCCCCUCGGUAAUAGCGAAUGGGACCCA,0.616
13,GGCCGGCAUGGUCCCAGCCUCCUCGCUGGCGCCGGCUGGGCAACUUUCCGAGGGGACCGUCCCCUCGGUAAUUGCGAAUGGGACCCA,0.302
14,GGCCGGCAUGGUCCCAGCCUCCUCGCUGGCGCCGGCUGGGCAACUUUCCGAGGGGACCGUCCCCUCGGUAAUGGCGAAUGGGACCCC,0.783
15,GGCCGGCAUGGUCCCAGCCUCCUCGCUGGCGCCGGCUGGGCAACAAUCAGAGGGGACCGUCCCCUCGGUAAUGGCGAAUGGGACCCA,0.665
16,GGCCGGCAUGGUCCCAGCCUCCUCGCUGGCGCCGGCUGGGCAACUUUCCGAGGGGACCGUCCCCUCCGUAAUGGCGAAUGGGACCCA,0.719
17,GGCCGGCAUGGUCCCAGCCUCCUCGCUGGCGCCGGCUGGGCAACUUUCCGAGGGGACCGUCCCCUCAGUAAUGGCGAAUGGGACCCA,0.717
18,GGCCGGCAUGGUCCCAGCCUCCUCGCUGGCGCCGGCUGGGCAACGUUCCGAGGGGACCGUCCCCUCGGUAAUGGCGAAGGGGACCCA,0.317
19,GGCCGGCAUGGUCCCAGCCUCCUCGCUGGCGCCGGCUGGGCAACGUCCCGAGGGGACCGUCCCCUCGGUAAUGGCGAAUGGGACCCA,0.787
20,GGCCGGCAUGGUCCCAGCCUCCUCGCUGGCGCCGGCUGGGCAACUUUCCGAGAGGACCGUCCCCUCGGUAAUGGCGAAUGGGACCCA,0.997
21,GGCCGGCAUGGUCCCAGCCUCCUCGCUGGCGCCGGCUGGGCAACGUUCCGAGGGGACCGUCCCCUCGGAAAUGGCGAAUGGGACCCA,0.895
22,GGCCGGCAUGGUCCCAGCCUCCUCGCUGGCGCCGGCUGGGCAACUUUGCGAGGGGACCGUCCCCUCGGUAAUGGCGAAUGGGACCCA,0.739

row,Variant,self-cleavage
1,GGCCGGCAUGGUCCCAGCCUCCUCGCUGGCGCCGGCUGGGCAACGUUCCGAGGGGACCGUCCCAUCGGUAAUGGCGAAUGGGACCCA,0.658
2,GGCCGGCAUGGUCCCAGCCUCCUCGCUGGCGCCGGCUGGGCAACUGUCCGAGGGGACCGUCCCCUCGGUAAUGGCGAAUGGGACCCA,0.787
3,GGCCGGCAUGGUCCCAGCCUCCUCGCUGGCGCCGGCUGGGCAACUCUCCGAGGGGACCGUCCCCUCGGUAAUGGCGAAUGGGACCCA,0.665
4,GGCCGGCAUGGUCCCAGCCUCCUCGCUGGCGCCGGCUGGGCAACUUUCCGAGGGGACCGUCCCCUCGGUAAUGGCGAAUGGGACUCA,0.877
5,GGCCGGCAUGGUCCCAGCCUCCUCGCUGGCGCCGGCUGGGCAACGUUCCGAGGGGAACGUCCCCUCGGUAAUGGCGAAUGGGACCCA,0.979
6,GGCCGGCAUGGUCCCAGCCUCCUCGCUGGCGCCGGCUGGGCAACGUUCCGAGGGGACCGUCCCCUCGGUAAAGGCGAAUGGGACCCA,0.604
7,GGCCGGCAUGGUCCCAGCCUCCUCGCUGGCGCCGGCUGGGCAACGUUCCGAGGGGACCGUCCCCUCGGUAACGGCGAAUGGGACCCA,0.87
8,GGCCGGCAUGGUCCCAGCCUCCUCGCUGGCGCCGGCUGGGCAACUUUCCGAGGGGACCGUCCCCUCGGUAAUGGCGAAUGGGAUCCA,0.623
9,GGCCGGCAUGGUCCCAGCCUCCUCGCUGGCGCCGGCUGGGCAACUUUCCGAGGGGACCGUCCCCUCGGUAAUGGCGAAUGGGAGCCA,0.332
10,GGCCGGCAUGGUCCCAGCCUCCUCGCUGGCGCCGGCUGGGCAACUUUCCGAGGGGCCCGUCCCCUCGGUAAUGGCGAAUGGGACCCA,0.806
11,GGCCGGCAUGGUCCCAGCCUCCUCGCUGGCGCCGGCUGGGCAACUUUCCGUGGGGACCGUCCCCUCGGUAAUGGCGAAUGGGACCCA,0.767
12,GGCCGGCAUGGUCCCAGCCUCCUCGCUGGCGCCGGCUGGGCAACGUUCCGAGGGGACCGUCCCCUCGGUAAUGGCGAAUCGGACCCA,0.415
13,GGCCGGCAUGGUCCCAGCCUCCUCGCUGGCGCCGGCUGGGCAACUUUCCGAGGGGACCGUCCCCUCGCUAAUGGCGAAUGGGACCCA,0.706
14,GGCCGGCAUGGUCCCAGCCUCCUCGCUGGCGCCGGCUGGGCAACUUUCCGAGGGGACCGUCCCCUCGGUAGUGGCGAAUGGGACCCA,0.872
15,GGCCGGCAUGGUCCCAGCCUCCUCGCUGGCGCCGGCUGGGCAACUUUCCGAGGGGACCGUCCCCUCGGUAAUGGCGAAUGGCACCCA,0.0898
16,GGCCGGCAUGGUCCCAGCCUCCUCGCUGGCGCCGGCUGGGCAACUUUCCGAGGGGACCGUCCGCUCGGUAAUGGCGAAUGGGACCCA,0.63
17,GGCCGGCAUGGUCCCAGCCUCCUCGCUGGCGCCGGCUGGGCAACUUUCCGAGGGGAGCGUCCCCUCGGUAAUGGCGAAUGGGACCCA,0.831
18,GGCCGGCAUGGUCCCAGCCUCCUCGCUGGCGCCGGCUGGGCAACUUUCCGAGGGGACCGUACCCUCGGUAAUGGCGAAUGGGACCCA,0.928
19,GGCCGGCAUGGUCCCAGCCUCCUCGCUGGCGCCGGCUGGGCAACUUUCCGAGGGGACCGUCCCCUCGGCAAUGGCGAAUGGGACCCA,0.959
20,GGCCGGCAUGGUCCCAGCCUCCUCGCUGGCGCCGGCUGGGCAACUUUCCGAGGGGACCGUCCCCUCGGGAAUGGCGAAUGGGACCCA,0.855

# From the RNAGym collection of RNA variant scans (doi:10.7554/elife.80360)
